B1: YYB-101 (HGF neutralising antibody) (antibody, human IgG4 S228P, kappa, V domains shown)
VH: EVQLVESGGGLVQPGGSLRLSCAASGFTFSTYYMSWVRQAPGKGLEWVAYIGTSSGTTYYADSVKGRFTISRDGSKNTLYLQMNSLRAEDTAVYYCARGLGRINLWGQGTLVTVSS
VL: DIQMTQSPSSLSASVGDRVTITCRASQGISNILAWYQQKPGKAPKLLIYGASNLESGVPSRFSGSGSGTDFTLTISSLQPEDFATYYCQSGYYSRGATFGQGTKVEIKR
B2: YYB-101 Single Chain Variable Fragment (scFv) (scFv)
scFv: DIQMTQSPSSLSASVGDRVTITCRASQGISNILAWYQQKPGKAPKLLIYGASNLESGVPSRFSGSGSGTDFTLTISSLQPEDFATYYCQSGYYSRGATFGQGTKVEIKGGGGSGGGGSGGGGSEVQLVESGGGLVQPGGSLRLSCAASGFTFSTYYMSWVRQAPGKGLEWVAYIGTSSGTTYYADSVKGRFTISRDGSKNTLYLQMNSLRAEDTAVYYCARGLGRINLWGQGTLVTVSS

Legend:
[1] = biological target: HGF protein (hepatocyte growth factor) (UniProt P14210); assay: ELISA, HGF coated on plate, YYB-101 at 1 ug/mL as positive control
Chain of UniProt P14210 (P14210 32-728 limits assumed): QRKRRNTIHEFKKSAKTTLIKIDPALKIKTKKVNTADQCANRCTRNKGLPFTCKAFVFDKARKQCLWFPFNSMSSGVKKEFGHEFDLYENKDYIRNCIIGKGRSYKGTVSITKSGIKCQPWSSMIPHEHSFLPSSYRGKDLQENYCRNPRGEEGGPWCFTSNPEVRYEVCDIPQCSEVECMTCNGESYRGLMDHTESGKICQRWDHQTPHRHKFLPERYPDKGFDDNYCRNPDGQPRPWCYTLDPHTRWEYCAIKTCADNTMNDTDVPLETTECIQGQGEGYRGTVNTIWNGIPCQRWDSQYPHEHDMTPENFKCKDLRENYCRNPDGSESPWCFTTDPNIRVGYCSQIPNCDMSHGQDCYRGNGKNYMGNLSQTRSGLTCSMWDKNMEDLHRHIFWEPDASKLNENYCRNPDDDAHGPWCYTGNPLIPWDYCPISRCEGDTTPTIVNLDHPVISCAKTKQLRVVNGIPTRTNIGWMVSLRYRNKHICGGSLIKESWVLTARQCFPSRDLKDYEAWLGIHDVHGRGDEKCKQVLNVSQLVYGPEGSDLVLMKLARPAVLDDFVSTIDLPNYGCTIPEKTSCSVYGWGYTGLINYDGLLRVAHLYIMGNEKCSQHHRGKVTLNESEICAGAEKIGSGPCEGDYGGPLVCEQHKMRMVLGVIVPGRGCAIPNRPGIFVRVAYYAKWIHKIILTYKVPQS

[2] = biological target: HGF protein (hepatocyte growth factor) (UniProt P14210); assay: ELISA, HGF coated on plate, 24 h culture supernatant of YYB-103-1XX+YYB-101 scFv CAR-T cells

Binder	OD, 450nm (HGF 결합) [1] [OD 450 nm]	OD, 450nm (HGF 결합) [2] [OD 450 nm]
B1	3.02	
B2		2.63

Reference: KR20230148435A
